Measured values as given in patent US20120244164A1.

Columns and labels:
[1] = target: recombinant human c-Met/Fc chimera (R&D systems) (human); experiment: HGF/c-Met competition Alphascreen, in presence of 5 uM HSA
[2] = target: recombinant human c-Met/Fc chimera (R&D systems) (human); experiment: HGF/c-Met competition Alphascreen, in absence of HSA
[3] = target: Human c-Met (human) (UniProt P08581); experiment: cell-based or functional assay
[4] = target: Human c-Met (human) (UniProt P08581); experiment: competition flow cytometry: 1 nM biotinylated hHGF on A549 cells
[5] = target: recombinant human c-Met/Fc chimera (R&D systems) (human); experiment: HGF/c-Met competition Alphascreen: biotinylated hHGF, human c-Met/Fc
[6] = target: cynomolgus c-Met (cynomolgus monkey); experiment: competition FACS: 0.5 nM biotinylated HGF on BAF3 cells with cynomolgus c-Met
Chain of cynomolgus c-Met (cynomolgus monkey) (A0M8R7 25-1381 S170N/I621T limits assumed): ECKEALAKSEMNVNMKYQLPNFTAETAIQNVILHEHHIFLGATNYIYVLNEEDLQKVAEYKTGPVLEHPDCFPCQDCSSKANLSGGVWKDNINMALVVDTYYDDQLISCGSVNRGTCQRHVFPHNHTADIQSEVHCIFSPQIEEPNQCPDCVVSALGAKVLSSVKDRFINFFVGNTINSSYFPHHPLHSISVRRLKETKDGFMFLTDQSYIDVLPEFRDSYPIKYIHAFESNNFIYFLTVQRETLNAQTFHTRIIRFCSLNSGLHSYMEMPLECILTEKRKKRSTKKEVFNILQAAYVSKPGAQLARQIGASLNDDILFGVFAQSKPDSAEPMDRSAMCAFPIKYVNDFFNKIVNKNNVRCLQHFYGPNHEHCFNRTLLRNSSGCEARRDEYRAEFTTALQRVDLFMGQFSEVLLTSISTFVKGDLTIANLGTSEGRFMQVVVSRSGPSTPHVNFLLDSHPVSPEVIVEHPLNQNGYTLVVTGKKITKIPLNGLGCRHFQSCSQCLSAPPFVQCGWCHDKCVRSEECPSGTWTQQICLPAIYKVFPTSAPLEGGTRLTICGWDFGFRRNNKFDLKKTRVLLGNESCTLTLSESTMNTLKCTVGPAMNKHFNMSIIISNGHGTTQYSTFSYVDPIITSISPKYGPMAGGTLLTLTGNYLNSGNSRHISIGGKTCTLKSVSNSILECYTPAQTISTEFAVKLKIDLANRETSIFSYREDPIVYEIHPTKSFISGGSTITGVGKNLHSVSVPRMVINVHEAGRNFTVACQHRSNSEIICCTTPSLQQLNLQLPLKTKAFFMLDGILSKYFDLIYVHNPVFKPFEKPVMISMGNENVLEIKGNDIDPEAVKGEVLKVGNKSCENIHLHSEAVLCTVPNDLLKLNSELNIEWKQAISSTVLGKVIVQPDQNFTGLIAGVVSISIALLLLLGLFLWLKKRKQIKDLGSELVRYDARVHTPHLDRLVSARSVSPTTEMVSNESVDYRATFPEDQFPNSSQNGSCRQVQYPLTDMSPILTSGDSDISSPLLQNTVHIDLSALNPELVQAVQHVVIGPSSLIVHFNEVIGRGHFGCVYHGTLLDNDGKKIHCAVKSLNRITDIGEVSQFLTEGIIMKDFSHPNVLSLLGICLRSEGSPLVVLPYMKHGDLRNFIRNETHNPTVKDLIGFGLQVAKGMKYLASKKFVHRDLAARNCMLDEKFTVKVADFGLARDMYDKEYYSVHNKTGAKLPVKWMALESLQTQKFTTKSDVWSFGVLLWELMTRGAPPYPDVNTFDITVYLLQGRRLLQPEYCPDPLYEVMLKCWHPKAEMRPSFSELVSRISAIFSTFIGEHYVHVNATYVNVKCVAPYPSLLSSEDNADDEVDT

Chain of recombinant human c-Met/Fc chimera (R&D systems) (human) (chain, as listed by the source mutant limits assumed): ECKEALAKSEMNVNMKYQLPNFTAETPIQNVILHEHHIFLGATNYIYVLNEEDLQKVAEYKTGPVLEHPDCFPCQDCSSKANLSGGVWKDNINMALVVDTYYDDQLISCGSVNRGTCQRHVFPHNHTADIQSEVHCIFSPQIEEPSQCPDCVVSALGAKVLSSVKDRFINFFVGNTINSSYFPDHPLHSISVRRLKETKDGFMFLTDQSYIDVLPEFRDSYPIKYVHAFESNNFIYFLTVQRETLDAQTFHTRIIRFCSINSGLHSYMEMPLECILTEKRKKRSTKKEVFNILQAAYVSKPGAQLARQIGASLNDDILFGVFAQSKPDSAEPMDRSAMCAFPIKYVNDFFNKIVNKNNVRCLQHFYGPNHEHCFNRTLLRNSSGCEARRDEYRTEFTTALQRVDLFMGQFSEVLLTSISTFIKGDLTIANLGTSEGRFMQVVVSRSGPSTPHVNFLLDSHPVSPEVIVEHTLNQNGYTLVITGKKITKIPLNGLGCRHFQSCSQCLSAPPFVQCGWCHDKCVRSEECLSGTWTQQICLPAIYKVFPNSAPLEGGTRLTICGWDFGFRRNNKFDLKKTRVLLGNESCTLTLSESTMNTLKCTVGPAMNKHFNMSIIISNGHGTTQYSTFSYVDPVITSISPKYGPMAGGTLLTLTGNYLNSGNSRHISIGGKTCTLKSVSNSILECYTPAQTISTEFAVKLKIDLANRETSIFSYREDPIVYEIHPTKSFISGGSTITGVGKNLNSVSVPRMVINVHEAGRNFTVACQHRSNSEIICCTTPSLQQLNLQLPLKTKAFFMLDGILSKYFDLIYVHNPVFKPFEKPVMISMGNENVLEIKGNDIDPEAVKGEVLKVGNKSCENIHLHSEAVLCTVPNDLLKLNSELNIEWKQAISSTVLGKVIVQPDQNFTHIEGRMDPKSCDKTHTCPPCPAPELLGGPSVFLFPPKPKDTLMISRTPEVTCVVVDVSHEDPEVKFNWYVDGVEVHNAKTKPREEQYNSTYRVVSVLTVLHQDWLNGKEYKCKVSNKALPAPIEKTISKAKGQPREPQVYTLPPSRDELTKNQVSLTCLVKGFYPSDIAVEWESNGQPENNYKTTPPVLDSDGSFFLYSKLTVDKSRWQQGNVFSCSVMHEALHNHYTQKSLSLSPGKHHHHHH
Chain of Human c-Met (human) (P08581 25-1390 limits assumed): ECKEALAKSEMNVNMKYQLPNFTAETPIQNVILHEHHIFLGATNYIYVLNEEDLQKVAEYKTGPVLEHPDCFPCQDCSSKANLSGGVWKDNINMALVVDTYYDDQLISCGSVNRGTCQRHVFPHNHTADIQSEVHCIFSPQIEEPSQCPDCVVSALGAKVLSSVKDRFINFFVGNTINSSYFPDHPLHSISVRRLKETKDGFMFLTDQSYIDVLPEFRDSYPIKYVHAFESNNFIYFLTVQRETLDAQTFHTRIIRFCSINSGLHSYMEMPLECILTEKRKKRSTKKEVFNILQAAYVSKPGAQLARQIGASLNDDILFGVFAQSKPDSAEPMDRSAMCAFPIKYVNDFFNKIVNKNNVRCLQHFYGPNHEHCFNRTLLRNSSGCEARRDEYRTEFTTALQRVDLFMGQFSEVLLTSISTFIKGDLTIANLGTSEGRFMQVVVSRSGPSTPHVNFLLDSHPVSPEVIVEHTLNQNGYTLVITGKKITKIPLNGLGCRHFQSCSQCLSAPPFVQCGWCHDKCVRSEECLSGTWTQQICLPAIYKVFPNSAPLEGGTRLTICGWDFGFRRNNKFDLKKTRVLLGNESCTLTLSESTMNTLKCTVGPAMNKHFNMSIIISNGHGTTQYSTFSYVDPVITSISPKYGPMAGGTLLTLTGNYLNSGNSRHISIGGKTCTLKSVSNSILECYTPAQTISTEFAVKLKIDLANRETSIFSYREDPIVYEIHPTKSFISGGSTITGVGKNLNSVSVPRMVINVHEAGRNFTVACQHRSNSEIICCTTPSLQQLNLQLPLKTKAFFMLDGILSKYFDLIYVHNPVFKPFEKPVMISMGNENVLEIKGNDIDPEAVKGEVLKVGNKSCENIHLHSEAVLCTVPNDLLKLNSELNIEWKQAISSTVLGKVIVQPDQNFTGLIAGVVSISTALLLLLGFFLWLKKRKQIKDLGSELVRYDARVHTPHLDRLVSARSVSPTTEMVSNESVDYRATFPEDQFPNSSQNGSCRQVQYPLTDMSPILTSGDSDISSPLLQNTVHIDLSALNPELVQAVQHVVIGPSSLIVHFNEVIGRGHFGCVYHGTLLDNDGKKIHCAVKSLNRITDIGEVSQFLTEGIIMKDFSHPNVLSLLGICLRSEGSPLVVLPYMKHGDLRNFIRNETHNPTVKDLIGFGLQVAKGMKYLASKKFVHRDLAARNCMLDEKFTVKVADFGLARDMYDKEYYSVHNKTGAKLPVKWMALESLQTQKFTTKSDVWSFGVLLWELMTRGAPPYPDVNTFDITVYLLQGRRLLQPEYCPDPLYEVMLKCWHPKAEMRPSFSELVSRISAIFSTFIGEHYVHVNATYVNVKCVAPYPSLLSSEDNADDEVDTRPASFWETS

Row | IC50 [1] [nM] | IC50 [2] [nM] | % inhibition of HGF-dependent A549 cell migration [3] [%] | % inhibition of HGF-dependent c-Met phosphorylation, A549 cells, experiment 1 [3] [%] | % inhibition of HGF-dependent c-Met phosphorylation, A549 cells, experiment 2 [3] [%] | % inhibition of HGF-dependent proliferation of BxPC3 cells [3] [%] | IC50, HGF-dependent A549 cell migration [3] [nM] | IC50, HGF-dependent c-Met phosphorylation, A549 cells, experiment 1 [3] [nM] | IC50, HGF-dependent c-Met phosphorylation, A549 cells, experiment 2 [3] [nM] | IC50, HGF-dependent proliferation of BxPC3 cells [3] [nM] | IC50 [4] [nM] | % inhibition [5] [%] | IC50 [5] [nM] | IC50 [6] [nM] | concentration of maximal c-Met phosphorylation in A549 cells [3] [nM] | Substance
1 | 3.1 | 3.2 | 112 | 96.4 | 95.9 | 94.8 | 5.48 | 10.4 | 9.09 | 34.3 | 11.3 | 101 | 1.3 | – | – | anti-c-Met antibody fragment 5D5 Fab from mAb
2 | – | – | – | – | – | – | – | – | – | – | 2.72 | – | – | 6.7 | 37 | anti-c-Met antibody 5D5
